T1: Bcl-w, Q92843
T1 chain: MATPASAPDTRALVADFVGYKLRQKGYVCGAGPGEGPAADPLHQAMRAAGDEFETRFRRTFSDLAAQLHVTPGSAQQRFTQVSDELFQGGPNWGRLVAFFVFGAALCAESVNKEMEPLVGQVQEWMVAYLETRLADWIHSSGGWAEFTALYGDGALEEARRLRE

T2: Bfl-1, Q16548
T2 chain: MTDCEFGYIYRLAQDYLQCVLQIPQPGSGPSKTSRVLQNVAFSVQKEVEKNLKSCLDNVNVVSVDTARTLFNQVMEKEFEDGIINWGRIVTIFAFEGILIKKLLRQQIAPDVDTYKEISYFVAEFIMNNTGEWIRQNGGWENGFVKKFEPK

T3: Mcl-1, Q07820
T3 chain: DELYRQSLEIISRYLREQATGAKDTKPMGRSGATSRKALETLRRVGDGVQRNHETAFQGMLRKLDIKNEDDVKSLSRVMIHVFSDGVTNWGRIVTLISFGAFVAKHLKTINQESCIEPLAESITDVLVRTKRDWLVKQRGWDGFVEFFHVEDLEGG

B1: SNTB1 (peptide)
chain: DATHDEAVQALKRAGKEVLLEVKYMR
B2: AVEN (peptide)
chain: SQRGTDFSVLLSSAGDSFSQFRFAEE
B3: TFDP1 (peptide)
chain: NRKGEKNGKGLRHFSMKVCEKVQRKG
B4: RAPGEF2 (peptide)
chain: VIKQRRLPDQLSKLADRIQLSGRYYL
B5: CCDC138 (peptide)
chain: GAQHSTMTSTLRRLGEDIFKGVVTKG
B6: FIGN (peptide)
chain: DISALTASNLLKKYAEKYSGILEGPV
B7: CCNL1 (peptide)
chain: DGLDLPSETDLRILGCELIQAAGILL
B8: DYNC1H1 (peptide)
chain: NWFGDWSTEALYQVGKEFTSKMDLEK
B9: DPF3 (peptide)
chain: SCMATVIHNPLKALGDQFYKEAIEHC
B10: BCL2L11 (peptide)
chain: MRPEIWIAQEDRRIGDEFNAYYARRV
B11: ZEB1 (peptide)
chain: ALNAQPSAEELSKIADSVNLPLDVVK
B12: KIAA0367 (peptide)
chain: NMSNYSSSSLLSGAGKDSLVEHDEEF
B13: MED17 (peptide)
chain: ELLRLRQHWKLRKVGDKILGDLSYRS
B14: NLRC4 (peptide)
chain: GVAASDFIRSLDHCGDLALEGVFSHK
B15: TTC31 (peptide)
chain: DLSSTFVSLALRKVGDWPLSARREKG
B16: TMX2 (peptide)
chain: LNELYQRAKKLSKAGDNIPEEQPVAS
B17: DEDD (peptide)
chain: VDVIDDHERGLIRNGRDFLLALERQG
B18: LYZ (peptide)
chain: VFERCELARTLKRLGMDGYRGISLAN
B19: BFAR (peptide)
chain: KWTAEEVVLWLEQLGPWASLYRERFL
B20: CASP8 (peptide)
chain: PFKKMDFSRNLYDIGEQLDSEDLASL
B21: C6orf222 (peptide)
chain: DAIIQMIVELLKRVGDQWEEEQSLAS
B22: LMO2 (peptide)
chain: CLSCDLCGCRLGEVGRRLYYKLGRKL

molecular target: Bcl-xL, Q07817; test: peptide SPOT array, c-Myc-tagged receptor at 1 uM or 100 nM, anti-c-Myc-Cy3
Sequence (Q07817 1-209): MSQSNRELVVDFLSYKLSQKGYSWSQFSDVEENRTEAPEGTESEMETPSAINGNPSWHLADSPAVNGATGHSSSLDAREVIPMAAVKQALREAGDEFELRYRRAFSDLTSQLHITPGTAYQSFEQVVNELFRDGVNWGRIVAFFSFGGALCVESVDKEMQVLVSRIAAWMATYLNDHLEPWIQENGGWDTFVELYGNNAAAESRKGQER

Binder | SPOT signal as a fraction of Bim BH3's signal on the same receptor and array
B1 | 0.04
B2 | 0.16
B3 | 0.54
B4 | 1.08
B5 | 0.12
B6 | 0.1
B7 | 0.03
B8 | 0.04
B9 | 0.13
B10 | 0.09
B11 | 0.02
B12 | 0.03
B13 | 0.89
B14 | 0.02
B15 | 0.29
B16 | 0.13
B17 | 0.03
B18 | 0.65
B19 | 0.07
B20 | 0.07
B21 | 0.16
B22 | 1.18

Molecular target: T1, Bcl-w, Q92843
Test: as above

Binder | SPOT signal as a fraction of Bim BH3's signal on the same receptor and array
B1 | 0.02
B2 | 0.07
B3 | 0.91
B4 | 1.08
B5 | 0.64
B6 | 0.13
B7 | 0.01
B8 | 0.03
B9 | 0.2
B10 | 0.06
B11 | 0.01
B12 | 0.02
B13 | 1.03
B14 | 0.02
B15 | 1.09
B16 | 0.07
B17 | 0.02
B18 | 0.69
B19 | 0.03
B20 | 0.03
B21 | 0.33
B22 | 1.8

molecular target: Bcl-2, P10415; test: as above
Sequence (P10415 1-217): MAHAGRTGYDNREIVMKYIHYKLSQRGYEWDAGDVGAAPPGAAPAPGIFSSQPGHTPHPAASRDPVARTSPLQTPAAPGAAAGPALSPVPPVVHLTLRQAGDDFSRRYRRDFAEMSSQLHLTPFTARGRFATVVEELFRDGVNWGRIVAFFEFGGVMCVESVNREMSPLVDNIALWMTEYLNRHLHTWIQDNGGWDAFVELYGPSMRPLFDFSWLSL

Binder | SPOT signal as a fraction of Bim BH3's signal on the same receptor and array
B1 | 0.01
B2 | 0.02
B3 | 0.18
B4 | 0.49
B5 | 0.09
B6 | 0.06
B7 | 0.01
B8 | 0.02
B9 | 0.15
B10 | 0.05
B11 | 0.01
B12 | 0.01
B13 | 0.33
B14 | 0.01
B15 | 0.2
B16 | 0.02
B17 | 0.01
B18 | 0.27
B19 | 0.02
B20 | 0.02
B21 | 0.01
B22 | 0.59

Molecular target: T2, Bfl-1, Q16548
Test: as above

Binder | SPOT signal as a fraction of Bim BH3's signal on the same receptor and array
B1 | 0.03
B2 | 0.03
B3 | 0.52
B4 | 0.91
B5 | 0.45
B6 | 0.33
B7 | 0.01
B8 | 0.03
B9 | 0.03
B10 | 0.05
B11 | 0.01
B12 | 0.01
B13 | 0.78
B14 | 0.01
B15 | 0.75
B16 | 0.07
B17 | 0.02
B18 | 0.74
B19 | 0.04
B20 | 0.02
B21 | 0.06
B22 | 1.61

Molecular target: T3, Mcl-1, Q07820
Test: as above

Binder | SPOT signal as a fraction of Bim BH3's signal on the same receptor and array
B1 | 0.02
B2 | 0.06
B3 | 0.3
B4 | 0.69
B5 | 0.43
B6 | 0.13
B7 | 0.03
B8 | 0.03
B9 | 0.02
B10 | 0.05
B11 | 0.02
B12 | 0.02
B13 | 0.48
B14 | 0.02
B15 | 0.47
B16 | 0.05
B17 | 0.04
B18 | 0.38
B19 | 0.05
B20 | 0.05
B21 | 0.09
B22 | 0.86

Reference: publication PMC4072508, “Genome-Wide Prediction and Validation of Peptides That Bind Human Prosurvival Bcl-2 Proteins” (PLoS Computational Biology, 2014)
